Results on 2 molecules are retold here after patent publication US20080015165A1, “NOVEL POLYPEPTIDE” (KYOWA HAKKO KOGYO CO., LTD., priority 1998, published 2008).

Data set [1] can be described thus: In vitro α1,3-fucosyltransferase activity, COS-1 cell lysate, pyridylaminated substrate, HPLC. As to conditions: activity of human Fuc-TVI for α2,3-sialylLNnT taken as 100; 25 μM substrate, 2 hours at 37° C.; normalized to transcript amount. It counts as biochemical.
Experiment in data set [2]: as above
The format is biochemical. As to conditions: activity of human Fuc-TVI for α2,3-sialylLNnT taken as 100; 25 μM substrate, 2 hours at 37° C.; normalized to transcript amount. How it is done: Each α1,3-fucosyltransferase expression plasmid (15 μg) was introduced into 1×10^7 COS-1 cells.
This introduction was performed by electroporation method using a gene pulser (manufactured by Bio-Rad) according to the Bio-Rad's instructional manual attached thereto. At this time, 1 μg of a luciferase expression vector, which was constructed by inserting β-actin promoter into a Hind III site of a vector pSVOA/L [Experimental Medicine, 7, 96, (1989)] was co-introduced as an index of gene transfer efficiency.
After the gene introduction, COS-1 cells were dispensed into three dishes for cell culture with a diameter of 15 cm and then cultured for 48 hours.
The cells in the remaining two dishes were collected, suspended in a solution (20 mM HEPES (pH 7.4), 2% TrironX-100), then ultrasonicated for a short time period, thereby preparing cell lysate. The protein concentration of the cell lysate was measured using a micro BCA protein assay reagent kit (manufactured by PIERCE).
The enzymatic activities of luciferase and α1,3-fucosyltransferase were measured using the cell lysate. […]
Each of the substrates was allowed to react in assay solution with or without GDP-Fuc (sugar donator), then analyzed with HPLC. […]
The products were detected using a fluorescent spectrum photometer FP-920 (JASCO Corporation) at excitation wavelength of 320 nm and emission wavelength of 400 nm. […]
The source holds these as a separate data set.

Data set [3] is described as follows: Enzyme activity for a poly-N-acetyllactosamine sugar chain, Namalwa cell extract, HPLC. It counts as biochemical. An excerpt:
Using a poly-N-acetyllactosamine sugar chain, it was examined that to which GlcNAc in the sugar chains, human Fuc-TIX and 5 types of human α1,3-fucosyltransferase (Fuc-TIII, Fuc-TIV, Fuc-TV, Fuc-TVI, and Fuc-TVII) that had been cloned so far transferred fucose.
Control plasmid (pAMo) and the human Fuc-TIX expression plasmid pAMo-FT9 were introduced into Namalwa cells according to the method shown in Example 1 (3), thereby obtaining stable transformants.
Namalwa cells expressing each of the other 5 types of human α1,3-fucosyltransferases (Fuc-TIII, Fuc-TIV, Fuc-TV, Fuc-TVI, and Fuc-TVII) were obtained according to the previous report (Glycoconjugate J., 13, 802-812, Biochem. Biophys. Res. Commun., 237, 131-137, 1997).
The resultant transformants (about 1×10^7) were collected in microtubes (1.5 ml, manufactured by Eppendolf), followed by centrifugation at 550×g for 7 minutes to collect the cells.
The collected cells were washed with 0.9 ml of PBS. The washed cells were suspended in 100 μl of a solution which consisted of 20 mM HEPES (pH 7.2) and 1% TrironX-100, then allowed to stand at 4° C. for 10 minutes. Subsequently the cells were disrupted using a ultrasonicator (Bioruptor; manufactured by COSMO BIO CO., LTD.)
After disruption of the cells, each supernatant was obtained by centrifugation at 550×g for 7 minutes and used as an enzyme sample. A poly-N-acetyllactosamine sugar chain (Galβ1-4GlcNAcβ1-3Galβ1-4GlcNAcβ1-3Galβ1-4GlcNAc) consisting of 6 sugars was fluorescently labeled with 2-aminobenzamide to make a sugar chain (Galβ1-4GlcNAcβ1-3Galβ1-4GlcNAcβ1-3Galβ1-4GlcNAc-2AB: abbreviated as S in FIGS. 13 and 15, and table 3), which was used as a substrate
Florescent labeling was performed using a Signal™ 2-AB glycan labeling kit (manufactured by Oxford GlycoScience). A poly-N-acetyllactosamine sugar chain (Galβ1-4GlcNAcβ1-3Galβ1-4GlcNAcβ1-3Galβ1-4GlcNAc) was prepared according to WO98/03524.
(§1) Samples were allowed to react in 20 μl of an assay solution [50 mM cacodylate (pH 6.8), 5 mM ATP, 10 mM L-fucose, 75 μM […] (manufactured by SIGMA), 25 mM MnCl2, 15 μM fluorescently labeled sugar chain substrate, 6 μl of the cell lysate above] at 37° C. for 2 hours, followed by treatment at 100° C. for 3 minutes to stop the reaction. Next 200 μl of water was added to the samples, and the supernatant was obtained by centrifugation at 10,000×g for 5 minutes. Using an aliquot of the supernatant (10 μl), products were analyzed by HPLC under the following conditions.
(§2) HPLC: • Column—TSK-gel ODS-80TsQA column (4.6×250 mm; TOSOH CORPORATION) • Eluate—0.02 M ammonium acetate (pH 4.0) containing 7% methanol • Elution temperature—50° C. • Flow rate—1.0 ml/min. • Detection—Fluorescence spectrum photometer FB-920 (manufactured by JASCO Corporation) (excitation wavelength: 330 nm, radiation wavelength: 420 nm)

The nature of data set [4]: Enzyme activity for monofucosylpoly-N-acetyllactosamine sugar chain P2, Namalwa cell extract, HPLC. The format is biochemical. As to conditions: relative activity with the activity for P2 assumed to be 1. How it is done: as §1, §2
A further data set concerns Namalwa cells. The data set is described as follows: Indirect fluorescent antibody staining of Namalwa cells expressing human Fuc-TIV or Fuc-TIX (VIM-2 and Le^x sugar chains). It counts as cell-based. As to conditions: compared to Namalwa cells transfected with pAMo. How it is done: Using an anti-VIM-2 sugar chain antibody (anti-CDw65 antibody, manufactured by Serotec) and anti-Le^x sugar chain antibodies [73-30 (manufactured by […] CORPORATION) and anti-CD15 antibody (C3D-1, manufactured by Dako)], indirect fluorescent antibody staining was performed for Namalwa cells expressing human Fuc-TIV or human Fuc-TIX, and for Namalwa cells transfected with the control vector pAMo, which were constructed in Example 9. The VIM-2 sugar chain is a sugar chain having the structure consisting of Galβ1-4GlcNAcβ1-3Galβ1-4(Fucα1-3)GlcNAc on non-reduced terminal of a sugar chain.
Indirect fluorescent antibody staining was performed according to the method described in Example 1 (3). Anti-VIM-2 sugar chain antibodies, 73-30 and C3D-1 were used after dilution at 1:50, 1:100, and 1:50.

The mark [5] stands for this setting: relative activity with the activity for P2 assumed to be 1.
The mark [6] stands for this setting: substrate S, relative value, total of products P1, P2 and P3 by each enzyme = 100%.

B1: Mouse Fuc-TIX: polypeptide of 359 amino acids (SEQ ID NO:1) encoded by mouse Fuc-TIX cDNA; novel α1,3-fucosyltransferase (protein)
chain: MTSTSKGILRPFLIVCIILGCFMACLLIYIKPTNSWVFSPMESASSVLKMKNFFSTKTDYFNETTILVWVWPFGQTFDLTSCQAMFNIQGCHLTTDRSLYNKSHAVLIHHRDISWDLTNLPQQARPPFQKWIWMNLESPTHTPQKSGIEHLFNLTLTYRRDSDIQVPYGFLTVSTNPFVFEVPSKEKLVCWVVSNWNPEHARVKYYNELSKSIEIHTYGQAFGEYVNDKNLIPTISTCKFYLSFENSIHKDYITEKLYNAFLAGSVPVVLGPSRENYENYIPADSFIHVEDFNSPSELAKYLKEVDKNNKLYLSYFNWRKDFTVNLPRFWESHACLACDHVKRHQEYKSVGNLEKWFWN
modifications: Mouse
notes: novel α1,3-fucosyltransferase
B1: the “Relative activity of α1,3-fucosyltransferases for substrate LNT” value in data set [1] was found to be 0. Also, the “Relative activity of α1,3-fucosyltransferases for substrate α2,3-sialyl LNnT” value in data set [2] amounted to 0.

B2: Fuc-TIV: known human α1,3-fucosyltransferase, previously cloned, expressed in Namalwa cells (protein, UniProt P22083 1-530, looked up)
Alpha-(1,3)-fucosyltransferase …: MRRLWGAARKPSGAGWEKEWAEAPQEAPGAWSGRLGPGRSGRKGRAVPGWASWPAHLALAARPARHLGGAGQGPRPLHSGTAPFHSRASGERQRRLEPQLQHESRCRSSTPADAWRAEAALPVRAMGAPWGSPTAAAGGRRGWRRGRGLPWTVCVLAAAGLTCTALITYACWGQLPPLPWASPTPSRPVGVLLWWEPFGGRDSAPRPPPDCRLRFNISGCRLLTDRASYGEAQAVLFHHRDLVKGPPDWPPPWGIQAHTAEEVDLRVLDYEEAAAAAEALATSSPRPPGQRWVWMNFESPSHSPGLRSLASNLFNWTLSYRADSDVFVPYGYLYPRSHPGDPPSGLAPPLSRKQGLVAWVVSHWDERQARVRYYHQLSQHVTVDVFGRGGPGQPVPEIGLLHTVARYKFYLAFENSQHLDYITEKLWRNALLAGAVPVVLGPDRANYERFVPRGAFIHVDDFPSASSLASYLLFLDRNPAVYRRYFHWRRSYAVHITSFWDEPWCRVCQAVQRAGDRPKSIRNLASWFER
Turning to B2, in data set [3] (setting [5]), the “Enzymatic activity, substrate S, product P1” value was 1.6; the “Enzymatic activity, substrate S, product P2” value was found to be 4.1; the “Enzymatic activity, substrate S, product P3” value was found to be 0.5. In data set [3] (setting [6]), the “Production (%) P1” value is on record as 22.2%, the “Production (%) P2” value amounted to 72.0% and the “Production (%) P3” value is recorded as 5.8%. Moreover, the “Enzymatic activity, substrate P2, product P3” value in data set [4] stood at 1.0. Besides, in the data set on Namalwa cells, the “reactivity against the anti-VIM-2 sugar chain antibody” value is given as “significant increase”.
